Here are results for 2 molecules from patent publication US20240100176A1 (Eli Lilly, published 2024).

Assay [1] has as its target T1, hexahistidine tagged human IL-4Rα ECD T108R (human, UniProt P24394 26-232).
T1 construct: also called D108R; not shown: hexahistidine tag
In words: capture ELISA: Ab1 on anti-human IgG Fc, His-tagged receptor at 0.2 µg/mL, anti-His HRP.

The target in assay [2] is T2, human IL-4Rα on cells (human PBMC B cells and CD4+ T cells, Daudi cells, HEK-Blue IL-4/IL-13 cells, myeloid … (human, UniProt P24394 26-825)).
T2 sequence: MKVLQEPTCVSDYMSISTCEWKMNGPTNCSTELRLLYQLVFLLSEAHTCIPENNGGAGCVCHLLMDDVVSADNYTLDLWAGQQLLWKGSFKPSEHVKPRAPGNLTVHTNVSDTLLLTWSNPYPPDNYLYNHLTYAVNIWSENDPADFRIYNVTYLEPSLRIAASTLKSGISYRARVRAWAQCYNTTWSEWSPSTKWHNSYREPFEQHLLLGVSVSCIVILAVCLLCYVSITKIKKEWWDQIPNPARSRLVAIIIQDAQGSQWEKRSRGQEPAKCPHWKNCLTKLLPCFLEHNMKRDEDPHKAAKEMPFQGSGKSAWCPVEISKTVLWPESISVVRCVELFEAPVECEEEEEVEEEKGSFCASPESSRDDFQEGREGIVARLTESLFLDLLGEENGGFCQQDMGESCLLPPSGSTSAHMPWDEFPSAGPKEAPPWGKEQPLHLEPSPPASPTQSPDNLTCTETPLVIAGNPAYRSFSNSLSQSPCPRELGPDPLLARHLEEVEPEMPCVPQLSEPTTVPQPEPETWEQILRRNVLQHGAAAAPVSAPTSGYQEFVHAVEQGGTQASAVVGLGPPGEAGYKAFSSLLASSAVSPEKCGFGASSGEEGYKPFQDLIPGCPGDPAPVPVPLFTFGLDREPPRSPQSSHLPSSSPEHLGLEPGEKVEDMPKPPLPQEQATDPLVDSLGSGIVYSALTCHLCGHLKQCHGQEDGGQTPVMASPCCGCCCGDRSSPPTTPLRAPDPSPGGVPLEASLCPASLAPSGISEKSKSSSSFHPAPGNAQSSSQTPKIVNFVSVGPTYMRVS
Put plainly: flow cytometry on human PBMCs, CD4-positive T cells, Alexa Fluor 647 labelled antibody, percent IL-4Rα positive cells. The protocol:
Example 3b. Binding to B cells and T cells: Binding of the exemplified anti-human IL-4Rα antibodies to B cells and T cells was tested in a Fluorescence Activated Cell Sorting (FACS) assay. […] Freshly isolated cells PBMCs were resuspended at 2×10⁶ cells/mL and allowed to rest for 15 minutes at room temperature, then plated at 100 μL/well into a round bottom 96-well plate (COSTAR®) and washed with FACS buffer (PBS containing 2% fetal bovine serum from Corning®). Exemplified anti-human IL-4Rα antibodies and the respective control IgG antibodies conjugated to Alexa Fluor® 647 according to manufacturer's protocol (Thermo Fisher Scientific) were added to the wells at 66.67 nM and diluted 4-fold in duplicate. Equivalent volume of 2× antibody cocktail containing: Human TruStain FcX™. FITC anti-human CD3 Antibody, Alexa Fluor® 700 anti-human CD4 Antibody (all from Biolegend®) and CD20 Monoclonal Antibody (2H7), PerCP-Cyanine5.5 (Thermo Fisher Scientific) was then added to the wells. Cells were incubated at 4° C. for 30 minutes, washed twice with FACS buffer and resuspended in a final volume of 100 μL FACS buffer. Viability dye, Sytox™ blue (Thermo Fisher Scientific), was added and the samples were analyzed via a flow cytometer (LSRFortessa™ X-20; BD BIOSCIENCES). Data analysis was performed using FlowJo software and statistical analysis was performed using GraphPad Prism 9. […]

Assay [3] concerns the target T3, human FcγRIIIA_158V (CD16a) extracellular domain (human, UniProt P08637 17-208).
T3 construct: extracellular domain
In words: SPR (Biacore), antibody captured on protein A, FcγR ECD as analyte, steady state, 25 °C. Here is the method: (§1) Unreacted sites were blocked with a 7 minute injection of ethanolamine at 10 μL/minute. Injections of 2×10 μL of glycine, pH 1.5, was used to remove any noncovalently associated protein. Running buffer was 1×HBS-EP+(TEKNOVA, P/N H8022). The FcγR extracellular domains (ECDs)-FcγRI (CD64), FcγRIIA_131R, and FcγRIIA_131H (CD32a), FcγRIIIA_158V, FcγRIIIA_158F (CD16a), and FcγRIIb (CD32b) were produced from stable CHO cell expression and purified using IgG Sepharose and size exclusion chromatography. For FcγRI binding, antibodies were diluted to […] in running buffer, and approximately 150 RU of each antibody was captured in FCs 2 through 4 (RU captured). FC1 was the reference FC, therefore no antibody was captured in FC1. […] Duplicate injections of each concentration were injected over all FCs at 40 μL/minute for 120 seconds followed by a 1200 second dissociation phase. Regeneration was performed by injecting 15 μL of 10 mM glycine, pH 1.5, at 30 μL/minute over all FCs. Reference-subtracted data was collected as FC2 FC1, FC3-FC1, and FC4-FC1 and the measurements were obtained at 25° C. The affinity (KD) was calculated using either steady state equilibrium analysis with the Scrubber 2 Biacore Evaluation Software or a “1:1 (Langmuir) binding” model in BIA Evaluation. For FcγRIIa, FcγRIIb, and FcγRIIIa binding, antibodies were diluted to 5 μg/mL in running buffer, and approximately 500 RU of each antibody was captured in FCs 2 through 4). FC1 was the reference FC. […] Duplicate injections of each concentration were injected over all FCs at 40 μL/minute for 60 seconds followed by a 120 second dissociation phase. Regeneration was performed by injecting 15 μL of 10 mM glycine, pH 1.5, at 30 μL/minute over all FCs. Reference-subtracted data was collected as FC2-FC1, FC3-FC1, and FC4-FC1, and the measurements were obtained at 25° C. The affinity (KD) was calculated using the steady state equilibrium analysis with the Scrubber 2 Biacore Evaluation Software. Each receptor was assayed at least two times.

Assay [4] deals with T4, human FcγRIIA_131R (CD32a) extracellular domain (human, UniProt P12318 34-217).
T4 construct: extracellular domain
T4 sequence (looked up): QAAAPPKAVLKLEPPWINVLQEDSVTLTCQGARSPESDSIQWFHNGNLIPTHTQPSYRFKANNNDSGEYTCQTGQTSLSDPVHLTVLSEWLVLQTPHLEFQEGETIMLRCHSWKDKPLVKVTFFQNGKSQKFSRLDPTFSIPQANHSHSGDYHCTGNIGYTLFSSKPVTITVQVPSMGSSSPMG
The assay is described as above. Here is the method:
as §1

T1 sequence (P24394 26-232 T133R): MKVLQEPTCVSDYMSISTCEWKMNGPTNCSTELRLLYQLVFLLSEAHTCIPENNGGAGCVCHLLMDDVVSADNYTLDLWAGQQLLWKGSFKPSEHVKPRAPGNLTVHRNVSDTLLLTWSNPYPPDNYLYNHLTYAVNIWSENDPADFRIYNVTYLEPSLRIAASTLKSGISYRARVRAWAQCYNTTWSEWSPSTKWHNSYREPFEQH
T3 sequence (P08637 17-208 F176V): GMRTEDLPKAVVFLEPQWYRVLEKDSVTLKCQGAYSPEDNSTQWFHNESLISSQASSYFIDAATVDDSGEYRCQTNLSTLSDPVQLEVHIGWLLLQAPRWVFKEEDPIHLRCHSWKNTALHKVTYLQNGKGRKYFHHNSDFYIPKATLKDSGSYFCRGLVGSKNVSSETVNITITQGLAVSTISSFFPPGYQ

B1: anti-human IL-4Rα antibody Ab1 (antibody, human IgG4 S228P, kappa)
heavy: QVQLVESGGGLVQPGGSLRLSCVASGFTFSHSSMNWVRQAPGKGLEWVSYISRATGAVYYADSVKGRFTISRDNAKNSLYLQMNSLRDEDTAVYYCAREPVFDYWGQGTLVTVSSASTKGPCVFPLAPCSRSTSESTAALGCLVKDYFPEPVTVSWNSGALTSGVHTFPAVLQSSGLYSLSSVVTVPSSSLGTKTYTCNVDHKPSNTKVDKRVESKYGPPCPPCPAPEFLGGPSVFLFPPKPKDTLMISRTPEVTCVVVDVSQEDPEVKFNWYVDGVEVHNAKTKPREEQFNSTYRVVSVLTVLHQDWLNGKEYKCKVSNKGLPSSIEKTISKAKGQPREPQVYTLPPSREEMTKNQVSLTCLVKGFYPSDICVEWESNGQPENNYKTTPPVLDSDGSFFLYSRLTVDKSRWQQGNVFSCSVMHEALHNHYTQKSLSLSLG
light: DIQMTQSPSAMSASVGDRVTITCRASQDISNYLAWFQQKPGKVPTRLIYAASSLQSGVPSRFSGSGSGTEFTLTISSLQPEDFATYYCLQWSSYPRTFGQGTKVEIKRTVAAPSVFIFPPSDEQLKSGTASVVCLLNNFYPREAKVQWKVDNALQSGNSQESVTEQDSKDSTYSLSSTLTLSKADYEKHKVYACEVTHQGLSSPVTKSFNRGEC
notes: human kappa light chain; also called anti-human IL-4Rα Ab1; unconjugated Ab1
For B1, the “ELISA (OD450)” value in assay [1] stood at 1.82 OD450. Further, the EC50 in assay [2] is 26.3 nM.

B2: anti-human IL-4Rα Ab1 GC conjugate of Example 1b (n=4) (antibody, human IgG4 S228P, kappa)
heavy: B1 heavy
light: B1 light
modifications: glucocorticoid receptor agonist payload-linker (GC-L, Preparation 8) conjugated to the engineered cysteines at the 124 and 378 position of the heavy chain (EU numbering); n is 4 (average DAR 4.17 by RP-HPLC, 3.85 by TOF MS)
B2: the results for the Kd in assay [3] and in assay [4] were 4920 nM and 1820 nM, respectively.
